# Source: patent US20090220501A1 (published 2009)
# T1: human CD19 (human, UniProt P15391 20-556)
# T1 construct: whole, on cells; also called CD19 B-cell antigen
# T1 sequence (looked up): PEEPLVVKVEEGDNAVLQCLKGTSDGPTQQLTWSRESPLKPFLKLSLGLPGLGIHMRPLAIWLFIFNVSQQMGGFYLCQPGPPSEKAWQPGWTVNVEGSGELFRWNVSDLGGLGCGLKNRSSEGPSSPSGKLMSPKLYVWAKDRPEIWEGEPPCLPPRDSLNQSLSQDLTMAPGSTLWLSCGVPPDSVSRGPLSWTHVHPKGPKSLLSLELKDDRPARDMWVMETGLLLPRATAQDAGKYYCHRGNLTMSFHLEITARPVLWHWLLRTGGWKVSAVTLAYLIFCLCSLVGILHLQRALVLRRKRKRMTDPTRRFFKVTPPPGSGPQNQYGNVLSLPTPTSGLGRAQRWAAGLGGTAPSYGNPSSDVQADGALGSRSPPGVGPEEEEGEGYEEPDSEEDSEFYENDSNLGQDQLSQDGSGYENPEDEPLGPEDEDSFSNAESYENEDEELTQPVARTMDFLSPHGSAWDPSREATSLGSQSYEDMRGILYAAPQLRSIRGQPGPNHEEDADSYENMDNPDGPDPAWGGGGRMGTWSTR
# Biological target: T1, human CD19
# Test: flow cytometry on CD19-positive cells with varying antibody concentrations and a fluorescently labeled secondary antibody (Benedict method); mean of 6 experiments
binder,measurement,value
"humanized (chimeric) anti-CD19 IgG1 antibody of the disclosure, 4G7chim (antibody, V domains shown, also called anti-CD19 antibody of the present disclosure; CD19 chimeric antibody) VH: QVQLQQSGPELIKPGASVKMSCKASGYTFTSYVMHWVKQKPGQGLEWIGYINPYNDGTKYNEKFKGKATLTSDKSSSTAYMELSSLTSEDSAVYYCARGTYYYGSRVFDYWGQGTTLTVTV VL: DIVMTQAAPSIPVTPGESVSISCRSSKSLLNSNGNTYLYWFLQRPGQSPQLLIYRMSNLASGVPDRFSGSGSGTAFTLRISRVEAEDVGVYYCMQHLEYPLTFGAGTKLEIRR",Kd,~5.5 nM
